Source: paper doi:10.1101/2024.03.09.584257

Target: ICP1 Cas1 (Vibrio cholerae phage ICP1_2011_A)

ICP1 Cas1 (natural protein)
stoichiometry N: 2
